Results: patent publication US20220349880

Experiments:
[1] = test system: Peptide H-15: H2N-(CH2)4-CO-Pro-Leu-Ala-Phe-Val-Ala-NH-CH2-Fc
[2] = test system: Peptide H-16: H2N-(CH2)4-CO-Pro-Leu-Ala-Gly-Val-Ala-NH-CH2-Fc
[3] = test system: Peptide H-1: H2N-(CH2)4-CO-Lys-Val-Arg-Phe-Val-Gly-NHCH2-Fc
[4] = test system: Peptide H-2: H2N-(CH2)4-CO-Pro-Thr-Arg-Phe-Val-Gly-NHCH2-Fc
[5] = test system: Peptide H-3: H2N-(CH2)4-CO-Pro-Leu-Arg-Phe-Gly-Ala-NH-CH2-Fc
[6] = test system: Peptide H-4: H2N-(CH2)4-CO-Pro-Val-Gly-Phe-Val-Ala-NHCH2-Fc
[7] = test system: Peptide H-5: H2N-(CH2)4-CO-Ala-Pro-Leu-Arg-Phe-Gly-Ala-Ala-NHCH2-Fc
[8] = test system: Peptide H-6: H2N-(CH2)4-CO-Pro-Leu-Gly-Phe-Val-Ala-NHCH2-Fc
[9] = test system: Peptide H-7: H2N-(CH2)4-CO-Pro-Leu-Gly-Gly-Val-Ala-NHCH2-Fc

Substance: recombinant human cathepsin B (rhCB), activated by incubation in 25 mM MES buffer (pH 5.0) containing 5 mM DTT for 15 min
- proteolysis rate (electrochemical measurements, fluorogenic assays and HPLC-MS analysis) [1]: three peptides H-3, H-15 and H-16 were selected for this study due to the higher proteolysis rates by cathepsin B compared to other candidates
- proteolytic activity among about 30 synthesized peptides [1]: has shown the highest proteolytic activity by cathepsin B
- proteolysis rate (electrochemical measurements, fluorogenic assays and HPLC-MS analysis) [2]: three peptides H-3, H-15 and H-16 were selected for this study due to the higher proteolysis rates by cathepsin B compared to other candidates
- proteolysis rate (electrochemical measurements, fluorogenic assays and HPLC-MS analysis); one of the 'other candidates' with a lower rate [3]: three peptides H-3, H-15 and H-16 were selected for this study due to the higher proteolysis rates by cathepsin B compared to other candidates
- proteolysis rate (electrochemical measurements, fluorogenic assays and HPLC-MS analysis); one of the 'other candidates' with a lower rate [4]: three peptides H-3, H-15 and H-16 were selected for this study due to the higher proteolysis rates by cathepsin B compared to other candidates
- proteolysis rate (electrochemical measurements, fluorogenic assays and HPLC-MS analysis) [5]: three peptides H-3, H-15 and H-16 were selected for this study due to the higher proteolysis rates by cathepsin B compared to other candidates
- proteolysis rate (electrochemical measurements, fluorogenic assays and HPLC-MS analysis); one of the 'other candidates' with a lower rate [6]: three peptides H-3, H-15 and H-16 were selected for this study due to the higher proteolysis rates by cathepsin B compared to other candidates
- proteolysis rate (electrochemical measurements, fluorogenic assays and HPLC-MS analysis); one of the 'other candidates' with a lower rate [7]: three peptides H-3, H-15 and H-16 were selected for this study due to the higher proteolysis rates by cathepsin B compared to other candidates
- proteolysis rate (electrochemical measurements, fluorogenic assays and HPLC-MS analysis); one of the 'other candidates' with a lower rate [8]: three peptides H-3, H-15 and H-16 were selected for this study due to the higher proteolysis rates by cathepsin B compared to other candidates
- proteolysis rate (electrochemical measurements, fluorogenic assays and HPLC-MS analysis); one of the 'other candidates' with a lower rate [9]: three peptides H-3, H-15 and H-16 were selected for this study due to the higher proteolysis rates by cathepsin B compared to other candidates
